# Results taken from patent publication US6379938B1, “Epoxide hydrolase” (Puratos N.V., priority 1997, dated 2002).
# B1: cis-epoxysuccinate hydrolase: 253 amino acid, 28 kDa epoxide hydrolase of Rhodococcus rhodochrous LMGP-18079, expressed in E. coli from plasmid pREHXS (protein)
# chain: MQLNNANDNTQFRALLFDVQGTLTDFRSTLIEHGLSILGDRVDRELWEELVDQWRGCYRDELDSLVKQEKWRSVRAVYRDSLINLLAKFSDSFCATSAEVELLTDGWERLRSWPDVPSGLEQLRSKYLVAALTNADFSAIVNVGRSAKLQWDAVLSAQLFGAYKPHRSTYEGAATLLGIAPSEILMVASHAYDLEAAREVGAGTAYVRRPLEYGPTGRTEDVPDGRFDFLVDSISELADQLGCPRLGGTAGID
# How the values were obtained:
# [1] = Determination of the cis-epoxysuccinate-hydrolase activity (L-tartaric acid formed, HPLC); format: biochemical; conditions: cells of Escherichia coli DH10B containing plasmid pREHXS, overnight culture; 37° C., pH 8.0; activity = amount of L(+)-tartaric acid formed in a day by 1 gram of dried cells
# Procedure: The enzymatic reaction is performed at 37° C. in a final volume of 9.3 ml that contains the following components: 0.7 ml of 0.1N Tris.HCl buffer pH 8.0, 2.6 ml of a 1.14% Triton X-100 solution, 5.0 ml of a 30% sodium cis-epoxysuccinate solution and 1.0 ml of the cell suspension. The reaction is stopped by diluting the mixture between 100 and 500 times with H2O acidified to pH 2.2 with H3PO4.
# The amount of L-tartaric acid formed during the reaction is determined by HPLC at room temperature on a Vydac C18 column (cat no. 201HS3410) with a flow rate between 400 and 600 μl/min and a sample volume of 20 μl. The solvent is the same as the one used to dilute the samples. The detection of cis-epoxysuccinate and tartaric acid occurs at 210 nm.
# Activity is expressed as the amount of L(+)-tartaric acid formed in a day by 1 gram of dried cells.
# The Escherichia coli strain DH10B containing the plasmid pREHXS is cultivated overnight in 2×LB medium (Yeast Extract 1%, Bacto-tryptone 2%, NaCl 2%) supplemented with 100 μg/ml of ampicillin. The same strain with the pBluescriptSK(+) plasmid without insert is used as a control.
# The activity of the cis-epoxysuccinate hydrolase is determined in the cells collected from the two cultures using the protocol described in example 1. No activity could be detected in the control. About 150 units is present in the strain expressing the cis-epoxysuccinate gene.
# [2] = pH activity profile of the epoxide hydrolase (FIG. 5); format: biochemical; conditions: pH between 7.0 and 10 (FIG. 5)
# Excerpt: The isolated and purified epoxide hydrolase amino acid sequence according to the invention is also characterised by an advantageous pH activity profile having a high enzymatic activity (more than 80% of the optimum enzyme activity) between 7.0 and 10, preferably between 7.5 and 9.5 (see FIG. 5).
# FIG. 5 represents the relative enzymatic activity of the enzyme according to the invention.
# This enzymatic activity is advantageously maintained constant at a pH higher than 7, preferably at a pH comprised between 7.0 and 10, more preferably at a pH comprised between 7.5 and 9.5.
molecule,measurement,setting,value
B1,activity of the cis-epoxysuccinate hydrolase,[1],About 150 units
same,enzymatic activity relative to the optimum enzyme activity,[2],more than 80%
